Assay results from patent publication US9296811B2, “Methods for treating a tumor using an antibody that specifically binds HMW-MAA” (University of Pittsburgh—Of the Commonwealth System of …, priority 2010, dated 2016).
Entries after “also recorded” stand apart in the source; their conditions may differ.

Legend:
[1] = test system: melanoma cell lines (Colo38, M21, SK-MEL-37, MV3, 1520); assay: MTT cell growth assay, vemurafenib and C21; format: cell-based, human
[2] = target: V600E mutated BRAF (Homo sapiens, UniProt P15056, V600E); details: cited from earlier work
[3] = test system: human melanocytic lesions; assay: Immunohistochemical staining of frozen sections of human melanocytic lesions with C21; format: binding; details: benign pigmented nevus, primary melanoma, metastatic melanoma
From the text: FIG. 6A-6F. Digital images of immunohistochemical staining of frozen sections of human melanocytic lesions with C21.

[4] = target: T1, CSPG4 (Homo sapiens, UniProt Q6UVK1); assay: FACS reactivity of C21 with established and patient-derived melanoma cell lines; format: binding; details: established or patient-derived lines containing BRAF^V600E or BRAF^WT
T1 construct: Representative FACS analysis of CSPG4 expression by melanoma cell lines using CSPG4-specific C21 and PE-conjugated anti-human IgG; endogenous in cells; host or cells: established (1520, 836, Colo38, M21, MEL526, MV3, SK-MEL-28, SK-MEL-37, WM1158) and patient-derived (Mel-JR, Mel-KD, pre/post vemurafenib) human melanoma cell lines
From the text: FIG. 5A to 5B. […] (FIG. 5A) Representative FACS analysis of CSPG4 expression by melanoma cell lines using CSPG4-specific C21 and PE-conjugated anti-human IgG. 119 was used as an isotype control. (FIG. 5B) A panel of melanoma cell lines bound by C21. *Percentage of CSPG4^+ cells. MFI: mean fluorescence intensity. The top section (1520, 836, Colo38, M21, MEL526, MV3, KS-MEL-28, SK-MEL-37, and WM1158) are established melanoma cell lines; The bottom section (MeI-JR(pre), MEL-JR(post), Mel-KD(pre), and Mel-KD(post)) are patient-derived human melanoma cell lines; pre: before vemurafenib (PLX4032) treatment, post: after vemurafenib (PLX4032) treatment.
A fully human mAb, scFc-FcC21 was produced by combining the HMW-MAA (CSPG4)-specific single chain of variable regions of heavy and light chains (scFv) to a Fc portion of IgG1 at the DNA level.

[5] = test system: normal human organ tissues; assay: IHC staining of normal human organ tissue microarray with C21 (cross-reactivity); format: binding; details: for IHC Result: normal human tissue, C21 4 μg/mL
[6] = test system: human melanoma BRAF(V600E)/CSPG4^+ xenografts; assay: Survival of mice bearing M21 xenografts, vemurafenib and C21; format: in vivo; details: M21 xenograft; vemurafenib 25 mg/kg orally twice a day for 13 days; C21 1 mg/mouse i.v. twice a week for 2 weeks; vs vemurafenib alone or vemurafenib+119
Experimental: FIG. 11. Improved response duration for vemurafenib in vivo. Human melanoma M21^BRAF(V600E)/CSPG4+ cells (2×10^6/mouse) were injected subcutaneously (s.c.) into 20 mice (day 0). By day 7, tumors were measurable, and mice were divided into four groups (5 mice/group) using a stratified randomization strategy. Mice received either vemurafenib, vemurafenib+C21, vemurafenib+119, or were untreated. Vemurafenib was delivered orally (25 mg/kg) twice a day for 13 days, while C21 or 119 were injected i.v. (1 mg/mouse) twice a week for 2 weeks. All mice were monitored for survival.

[7] = test system: BRAF^V600E and BRAF^WT melanoma cell; assay: MTT growth inhibition of melanoma cell lines by C21; format: cell-based, human; details: BRAF^V600E and BRAF^WT cells, 3, 5 days
Experimental: FIG. 7. […] The indicated cells were seeded in triplicate in 96-well plates (2.5×10^3/well) and treated for 3, 5 days with C21 and 119 in RPMI 1640/1% FCS. Living cells were detected using MTT assays. The results are expressed as percent inhibition of cell growth, with untreated cells representing 100%. Mean values±SD were calculated from two independent experiments.

[8] = test system: melanoma cells; assay: Prevention/delay of acquired resistance of melanoma cells to vemurafenib in vitro; format: cell-based, human
Experimental: FIG. 13. Prevention/delay of acquired resistance of melanoma cells to vemurafenib. Melanoma cells were seeded in 6-well plates (2.5×10^4 cells/well) containing 2 ml/well RPMI 1640/10% FCS. […] Cells received fresh growth medium every 4 days containing the appropriate treatment concentrations, for 28 days. Cells in randomly selected fields were photographed at different timepoints using a Zeiss Inverted Fluorescence Microscope
In addition, the results presented in FIG. 13 evidences that treatment with C21 delayed resistance to vemurafenib up to 28 days in vitro, at which point the rate of cell growth was unaffected by the presence or absence of vemurafenib (10 μM) in the absence of C21.

[9] = test system: EGFR and PDGFRα; assay: Activation of EGFR and PDGFRα in melanoma cells after C21; format: cell-based, human; details: acquired resistance to BRAF inhibitor

V600E mutated BRAF, sequence (P15056 whole entry V600E): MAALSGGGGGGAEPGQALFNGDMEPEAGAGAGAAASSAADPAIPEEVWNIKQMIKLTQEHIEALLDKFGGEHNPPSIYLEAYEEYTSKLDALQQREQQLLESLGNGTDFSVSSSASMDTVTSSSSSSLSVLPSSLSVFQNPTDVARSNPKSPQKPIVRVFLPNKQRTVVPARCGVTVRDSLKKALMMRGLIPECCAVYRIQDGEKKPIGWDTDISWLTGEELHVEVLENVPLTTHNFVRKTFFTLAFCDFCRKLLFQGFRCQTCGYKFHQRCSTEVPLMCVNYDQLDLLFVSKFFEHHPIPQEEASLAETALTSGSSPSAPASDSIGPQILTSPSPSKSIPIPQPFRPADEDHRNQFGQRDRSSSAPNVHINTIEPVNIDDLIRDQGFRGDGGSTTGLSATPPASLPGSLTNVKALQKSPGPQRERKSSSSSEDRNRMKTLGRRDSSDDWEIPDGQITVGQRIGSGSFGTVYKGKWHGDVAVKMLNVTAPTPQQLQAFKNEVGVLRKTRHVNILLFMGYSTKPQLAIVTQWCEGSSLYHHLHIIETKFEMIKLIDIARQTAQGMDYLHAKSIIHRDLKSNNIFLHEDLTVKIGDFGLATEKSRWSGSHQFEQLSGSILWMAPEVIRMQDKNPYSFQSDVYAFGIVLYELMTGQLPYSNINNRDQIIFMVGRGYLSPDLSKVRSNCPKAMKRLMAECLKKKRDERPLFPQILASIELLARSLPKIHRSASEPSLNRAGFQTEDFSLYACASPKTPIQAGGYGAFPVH
T1 sequence (Q6UVK1 30-2322): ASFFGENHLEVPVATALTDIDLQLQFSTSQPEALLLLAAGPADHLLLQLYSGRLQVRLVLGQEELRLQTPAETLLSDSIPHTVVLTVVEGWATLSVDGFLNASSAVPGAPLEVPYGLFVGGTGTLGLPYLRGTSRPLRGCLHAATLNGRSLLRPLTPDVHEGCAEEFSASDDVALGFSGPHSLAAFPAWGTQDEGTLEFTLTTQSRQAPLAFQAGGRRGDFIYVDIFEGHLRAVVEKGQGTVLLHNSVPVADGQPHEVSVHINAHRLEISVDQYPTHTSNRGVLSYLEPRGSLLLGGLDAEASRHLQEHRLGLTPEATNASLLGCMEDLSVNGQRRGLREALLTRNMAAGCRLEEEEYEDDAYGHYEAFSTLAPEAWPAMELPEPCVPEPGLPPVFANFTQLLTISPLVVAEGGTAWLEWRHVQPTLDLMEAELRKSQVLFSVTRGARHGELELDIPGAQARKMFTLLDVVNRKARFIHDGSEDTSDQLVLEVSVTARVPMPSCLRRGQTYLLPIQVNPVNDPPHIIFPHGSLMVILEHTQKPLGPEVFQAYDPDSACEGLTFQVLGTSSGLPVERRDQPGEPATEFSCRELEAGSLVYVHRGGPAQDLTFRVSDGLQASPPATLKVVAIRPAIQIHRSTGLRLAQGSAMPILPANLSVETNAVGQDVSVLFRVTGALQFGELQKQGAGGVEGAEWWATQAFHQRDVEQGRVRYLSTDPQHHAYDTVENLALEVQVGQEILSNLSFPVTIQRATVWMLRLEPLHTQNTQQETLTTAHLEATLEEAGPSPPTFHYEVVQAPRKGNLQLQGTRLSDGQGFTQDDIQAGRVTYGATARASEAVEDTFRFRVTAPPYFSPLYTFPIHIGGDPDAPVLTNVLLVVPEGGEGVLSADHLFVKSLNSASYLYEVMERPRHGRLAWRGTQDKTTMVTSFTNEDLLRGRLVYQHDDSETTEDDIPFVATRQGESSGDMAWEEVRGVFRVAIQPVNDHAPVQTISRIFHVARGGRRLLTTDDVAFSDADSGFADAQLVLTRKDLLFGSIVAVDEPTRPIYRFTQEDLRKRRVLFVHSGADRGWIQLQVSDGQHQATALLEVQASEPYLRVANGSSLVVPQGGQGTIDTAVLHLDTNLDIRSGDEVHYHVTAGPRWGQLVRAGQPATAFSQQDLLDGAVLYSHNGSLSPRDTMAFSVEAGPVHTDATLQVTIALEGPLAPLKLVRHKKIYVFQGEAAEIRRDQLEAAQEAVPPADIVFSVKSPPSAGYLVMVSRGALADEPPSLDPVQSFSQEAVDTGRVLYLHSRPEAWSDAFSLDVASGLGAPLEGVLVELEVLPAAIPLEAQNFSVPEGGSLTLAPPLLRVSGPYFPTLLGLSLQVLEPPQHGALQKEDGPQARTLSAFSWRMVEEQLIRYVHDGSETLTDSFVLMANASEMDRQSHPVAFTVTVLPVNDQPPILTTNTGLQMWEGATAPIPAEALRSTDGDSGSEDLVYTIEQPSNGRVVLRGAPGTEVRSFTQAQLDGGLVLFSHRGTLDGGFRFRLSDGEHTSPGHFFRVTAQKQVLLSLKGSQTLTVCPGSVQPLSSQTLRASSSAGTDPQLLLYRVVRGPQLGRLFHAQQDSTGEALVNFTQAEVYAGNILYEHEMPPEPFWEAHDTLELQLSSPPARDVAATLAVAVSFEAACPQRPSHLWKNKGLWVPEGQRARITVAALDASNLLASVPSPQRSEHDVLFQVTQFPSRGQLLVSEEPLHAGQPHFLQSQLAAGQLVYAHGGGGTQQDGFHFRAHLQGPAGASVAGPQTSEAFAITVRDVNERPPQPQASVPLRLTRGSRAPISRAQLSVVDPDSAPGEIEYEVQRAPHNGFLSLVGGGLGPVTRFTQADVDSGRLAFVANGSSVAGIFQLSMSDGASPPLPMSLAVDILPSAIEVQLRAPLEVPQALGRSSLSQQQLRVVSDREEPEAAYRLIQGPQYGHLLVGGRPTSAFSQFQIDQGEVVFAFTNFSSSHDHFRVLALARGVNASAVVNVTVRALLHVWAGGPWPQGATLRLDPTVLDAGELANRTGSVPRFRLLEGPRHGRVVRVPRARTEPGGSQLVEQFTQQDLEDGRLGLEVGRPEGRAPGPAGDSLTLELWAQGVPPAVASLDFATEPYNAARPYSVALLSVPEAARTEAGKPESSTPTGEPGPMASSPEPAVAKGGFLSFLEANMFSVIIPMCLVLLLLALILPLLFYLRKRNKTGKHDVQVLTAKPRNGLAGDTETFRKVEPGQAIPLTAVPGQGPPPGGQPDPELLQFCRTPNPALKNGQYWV

Molecule: CCCS(=O)(=O)Nc1ccc(F)c(C(=O)c2c[nH]c3ncc(-c4ccc(Cl)cc4)cc23)c1F [vemurafenib, Vemurafenib]
- cell growth ([1]; BRAF^WT MV3 cells, vemurafenib 500 nM): did not affect
- response rate ([2]; 32 BRAF mutated advanced melanoma patients, phase II study (Flaherty et al 2010)): 70%
- tumor regression and overall survival ([2]; Phase I clinical trials, advanced melanoma patients with the V600E BRAF mutation): effective in promoting tumor regression and increasing overall survival
- median duration of response ([2]; melanoma patients treated with BRAF selective inhibitor): ~8 months

B1: C21: fully human mAb: HMW-MAA (CSPG4)-specific scFv combined to a Fc portion of IgG1; SEQ ID NOs: 3 and 4 (antibody, listed as Homo sapiens, V domains shown)
VH: QVQLVQSGAEVKKPGSSVKVSCKASGGTFSSYAISWVRQAPGQGLEWMGGIIPIFGTANYAQKFQGRVTITADESTSTAYMELSSLRSDDTAVYYCARALDPITFDSWGQGTLVTVSR
VL: SELTQDPAVSVALGQTVRITCQGDSLRSYYASWYQQKPGQAPVLVIYGKNNRPSGIPDRFSGSSSGNTASLTITGAQAEDEADYYCNSRDSSGNHVVFGGGTKLTVLGRS
- cell growth ([1]; 1520 cells negative for CSPG4, C21 0.1 mg/mL): did not affect
- IHC staining of melanocytic lesions [3]: homogeneous cytoplasmic and cytoplasmic membrane staining
- reactivity with human melanoma cell lines [4]: Broad reactivity
- reactivity with human melanoma cell lines ([4]; listed as scFv-FcC21 (C21)): able to recognize
- IHC Result ([5]; Cerebellum): negative
- IHC Result ([5]; Cerebrum): negative
- IHC Result ([5]; Colon): negative
- IHC Result ([5]; Esophagus): negative
- recognition of a panel of normal human organ tissues ([5]; FIG. 6, Table 2): not a panel of normal human organ tissues
- IHC Result ([5]; Heart): negative
- IHC Result ([5]; Kidney): negative
- IHC Result ([5]; Liver): negative
- IHC Result ([5]; Lung): negative
- IHC Result ([5]; Lymph node): negative
- IHC Result ([5]; Ovary): negative
- IHC Result ([5]; Pancreas): negative
- IHC Result ([5]; Peripheral nerve): negative
- IHC Result ([5]; Pituitary gland): negative
- IHC Result ([5]; Placenta): negative
- IHC Result ([5]; Prostate): negative
- IHC Result ([5]; Salivary gland): negative
- IHC Result ([5]; Skeletal muscle): negative
- IHC Result ([5]; Skin): negative
- IHC Result ([5]; Small intestine): negative
- IHC Result ([5]; Smooth muscle): negative
- IHC Result ([5]; Spinal cord): negative
- IHC Result ([5]; Spleen): negative
- IHC Result ([5]; Stomach): negative
- IHC Result ([5]; Testis): negative
- IHC Result ([5]; Thymus): negative
- IHC Result ([5]; Thyroid gland): negative
- IHC Result ([5]; Ureter): negative
- IHC Result ([5]; Uterine cervix): negative
- survival of mice [6]: prolonging the survival
- inhibition of melanoma cell growth in vitro [7]: Growth inhibition; also recorded: inhibited
- delay of resistance to vemurafenib in vitro ([8]; C21 0.1 mg/mL with vemurafenib increasing 500 to 10,000 nM): up to 28 days
- onset of acquired resistance to vemurafenib ([8]; melanoma cell line 1520, BRAF^V600E positive, CSPG4 negative): did not delay
- activation of EGFR and PDGFRα [9]: down-regulating activation
